Here are results for one substance from US20170014503A1.

The target of assay [1] is SP62 (gp41 652-671)-GTH1 peptide anchored to liposomes (HIV-1). The assay is described as follows: BIAcore SPR on liposome-anchored peptide; encounter-docking model A + B <-> AB (encounter) <-> ABx (docked); association of the encounter step. In general terms: In SPR one partner is held on a chip, and binding of the other changes the refractive index at the surface.
Assay [2] has as its target SP62-L669S (gp41 652-671)-GTH1 peptide anchored to liposomes (HIV-1). The assay is described as above.
Assay [3] concerns the target SP62 (gp41 652-671)-GTH1 peptide anchored to liposomes (HIV-1). As to the kind of experiment: BIAcore SPR on liposome-anchored peptide; encounter-docking model; forward rate of the docking step.
Assay [4] addresses SP62-L669S (gp41 652-671)-GTH1 peptide anchored to liposomes (HIV-1). The assay is described as above.
The target in assay [5] is SP62 (gp41 652-671)-GTH1 peptide anchored to liposomes (HIV-1). The assay is described as follows: SPR, peptide anchored to phospholipid liposomes.
The target of assay [6] is SP62-L669S (gp41 652-671)-GTH1 peptide anchored to liposomes (HIV-1). The assay is described as follows: SPR, peptide anchored to phospholipid liposomes.
Assay [7] deals with SP62 (gp41 652-671)-GTH1 peptide anchored to liposomes (HIV-1). The assay is described as follows: BIAcore SPR on liposome-anchored peptide; encounter-docking model; dissociation of the encounter step.
Assay [8] deals with SP62-L669S (gp41 652-671)-GTH1 peptide anchored to liposomes (HIV-1). The assay is described as above.
Assay [9] deals with KYNU mut.
The target in assay [10] is KYNU wt.
For assay [11], the target named is SP62 (gp41 652-671)-GTH1 peptide anchored to liposomes (HIV-1). The assay is described as follows: BIAcore SPR on liposome-anchored peptide; encounter-docking model; reverse rate of the docking step.
The target in assay [12] is SP62-L669S (gp41 652-671)-GTH1 peptide anchored to liposomes (HIV-1). The description is as above.

Regarding 2F5 mAb (antibody), the figures for the ka1 in assay [1] and in assay [2] were 931000 M⁻¹ s⁻¹ and 498000 M⁻¹ s⁻¹, respectively. Besides, the ka2 in assay [3] is 0.0181 s⁻¹; in [4] it was 0.0054 s⁻¹. This substance also had a response unit at 10 seconds after the injection was stopped in assay [5] of 495 RU. In assay [6], this substance showed a response unit (background subtracted) at 10 seconds after the injection was stopped of 617 RU. Moreover, the figures for the kd1 in assay [7] and in assay [8] were 0.00692 s⁻¹ and 0.00119 s⁻¹, respectively. Moreover, the reactivity value in column 'KYNU mut' in assay [9] is 0.465. The substance also yielded a reactivity value in column 'KYNU wt' in [10] of 3.63. Also, the kd2 in assay [11] was found to be 0.00037 s⁻¹; in assay [12], 2e-05 s⁻¹.
